Experiment [1] addresses murine double minute 2 (MDM2) protein fragment. Kind of experiment: photonic crystal bound-states-in-the-continuum resonance shift (label-free optical biosensor); MDM2 immobilised on the Si3N4 photonic crystal by APTES and BS3 (1.5 uM in 20 mM HEPES pH 7.4, 4 °C overnight), blocked with 5% non-fat dried milk in PBS; p53 1.5 uM in PBS, 20 min at room temperature, washed with PBS; transmission spectrum at θ = 0°.

Experiment [2] shares this target. Kind of experiment: atomic force microscopy; topographic maps of 20 x 20 µm^2 of the MDM2-functionalised photonic crystal surface after incubation with p53 (1.5 uM, 20 min); binding spots 10-20 nm high counted as p53•MDM2 complex. Also noted: unit not given here.

Turning to “p53 protein fragment (interacting domain of p53) (domain or fragment)”, the shift of the resonance wavelength in experiment [1] came to 2.4 nm. The substance further came in with a surface density of the complex in experiment [2] of 0.24.

The values above are taken from PMC5951372.
